# Tests used:
# PKCα = target: T1, PKCα (Homo sapiens, UniProt P17252); assay: PMA mediated PKCα sub-cellular translocation measured by kinase activity after photocleavable antibody isolation; assay type: cell-based; details: HeLa cells, 200 nM PMA for 5 min, n=4
# T1 construct: isolate and photo-release endogenous PKCa from the undiluted detergent fractionated HeLa cell extracts; endogenous in cells; host or cells: HeLa cells (ATCC)
# Protocol: Cultured HeLa cells (ATCC; Manassas, Va.) were stimulated for 5 min with 200 nM Phorbol-12-Myristate-13-Acetate (PMA; EMD Biosciences, Inc., San Diego, Calif.) and subsequently detergent fractionated into sub-cellular compartments according to reported procedures [Ramsby et al. (1994) Electrophoresis 15, 265-277; Ramsby & Makowski. (1999) Methods Mol Biol 112, 53-66; Chiang et al. (2000) J Biochem Biophys Methods 46, 53-68]. PMA is a potent activator of PKCα and is well known to cause translocation of the kinase from the cytosolic to the membrane sub-cellular compartments [Ross & Joyner. (1997) Endothelium 5, 321-332; Bazan & Rapoport. (1996) JPharmacol Toxicol Methods 36, 87-95; Yazlovitskaya & Melnykovych. (1995) Cancer Lett 88, 179-183].
# A photocleavable antibody conjugated solid affinity matrix was prepared and used to isolate and photo-release the antigen into solution essentially as described in Example 2 except that in this case, a photocleavable anti-IgG secondary antibody was used to immobilize the unlabeled primary antibody onto the solid affinity matrix. This antibody affinity matrix was used to isolate and photo-release endogenous PKCa from the undiluted detergent fractionated HeLa cell extracts. […]
# [1] = target: T2, human recombinant ZAP-70 tyrosine kinase (Homo sapiens, UniProt P43403); assay: kinase substrate profiling on photo-transferred proteins, phosphotyrosine detection; assay type: biochemical; details: plus ATP kinase reaction, 30 min at 37° C.
# T2 construct: purchased Invitrogen Corporation
# T2 sequence (P43403 1-619): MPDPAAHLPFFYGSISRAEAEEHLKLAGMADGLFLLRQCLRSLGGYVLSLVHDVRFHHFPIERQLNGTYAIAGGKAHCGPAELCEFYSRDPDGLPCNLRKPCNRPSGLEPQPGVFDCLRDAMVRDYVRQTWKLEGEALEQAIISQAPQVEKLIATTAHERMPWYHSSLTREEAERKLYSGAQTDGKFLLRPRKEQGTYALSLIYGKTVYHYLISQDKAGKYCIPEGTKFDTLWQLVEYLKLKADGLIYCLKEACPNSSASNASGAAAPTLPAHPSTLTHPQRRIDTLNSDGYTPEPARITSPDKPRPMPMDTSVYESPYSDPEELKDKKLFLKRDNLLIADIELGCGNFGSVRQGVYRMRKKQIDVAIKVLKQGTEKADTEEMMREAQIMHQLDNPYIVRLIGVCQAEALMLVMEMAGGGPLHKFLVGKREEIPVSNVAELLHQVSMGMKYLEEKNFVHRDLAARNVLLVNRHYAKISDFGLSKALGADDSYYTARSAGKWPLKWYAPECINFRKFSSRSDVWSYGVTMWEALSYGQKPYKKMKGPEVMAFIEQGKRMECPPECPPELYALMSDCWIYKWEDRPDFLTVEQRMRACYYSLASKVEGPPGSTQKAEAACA
# [2] = target: T3, human recombinant Src pp^60 tyrosine kinase (Homo sapiens, UniProt P12931); assay: as above; assay type: biochemical; details: plus ATP kinase reaction, 30 min at 37° C.
# T3 construct: purchased Invitrogen Corporation
# MDM2 bait = target: T4, MDM2 bait (Homo sapiens, UniProt Q00987); assay: p53-MDM interaction assay, pre-formed complexes of cell-free expressed proteins, contact photo-transfer; assay type: binding; details: complexes formed before contact photo-transfer
# T4 construct: made in house; host or cells: rabbit reticulocyte lysate, coupled cell-free transcription/translation
# T4 sequence (Q00987 whole entry): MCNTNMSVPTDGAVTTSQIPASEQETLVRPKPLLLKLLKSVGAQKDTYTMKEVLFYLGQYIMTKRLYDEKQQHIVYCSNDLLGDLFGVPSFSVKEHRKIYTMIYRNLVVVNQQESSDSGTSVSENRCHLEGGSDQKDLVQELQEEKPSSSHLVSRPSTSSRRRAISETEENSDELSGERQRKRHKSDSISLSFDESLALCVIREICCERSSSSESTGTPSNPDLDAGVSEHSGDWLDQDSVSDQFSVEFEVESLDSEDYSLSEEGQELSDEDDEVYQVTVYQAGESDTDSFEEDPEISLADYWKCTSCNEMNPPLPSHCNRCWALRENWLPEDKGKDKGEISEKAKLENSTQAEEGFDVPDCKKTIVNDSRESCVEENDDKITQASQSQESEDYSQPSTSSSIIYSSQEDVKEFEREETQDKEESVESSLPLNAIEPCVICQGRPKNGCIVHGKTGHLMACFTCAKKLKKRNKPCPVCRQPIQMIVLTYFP
# Protocol: BODIPY-FL-tRNA^COMPLETE was used for fluorescence labeling (at 2 μM) instead of BODIPY-FL-tRNA^Lys. The cell-free expressed p53 “probe” was labeled only with BODIPY-FL using the BODIPY-FL-tRNA^COMPLETE and was not labeled with PC-biotin in any way. […] The “bait” proteins were labeled only with PC-Biotin-tRNA^COMPLETE (at 1 μM) and not with BODIPY-FL in any way. The Translation Dilution Buffer (TDB) used to stop the reaction and prepare the sample contained no BSA or other protein carrier, 10 mM DTT instead of 2 mM and additionally contained 20 mM EDTA added from a 500 mM pH 8.0 stock and 4 mM cycloheximide (Sigma-Aldrich, St. Louis, Mo.) added from a 355 mM stock in DMSO.
# All steps were performed at +4° C. or on an ice water bath and all reagents and samples were also kept under these conditions during the procedure. […] To facilitate addition of small bead volumes to the samples, the beads were initially prepared to a 10% (v/v) bead suspension with 5 mM DTT in PBS. The samples, now 80 μL each, were then mixed with 10 μL of the 10% (v/v) bead suspension corresponding to addition of 1 μL packed bead volume. After capture on the NeutrAvidin beads for 1 hr, beads were washed by mixing 3× briefly (briefly=5 sec vortex mix) in 400 bead volumes per wash of PBS pH 7.5 and 5 mM DTT. […]
compound,measurement,setting,value
"CCCCCCCCCCCCCC(=O)O[C@@H]1[C@@H](C)[C@@]2(O)[C@@H](C=C(CO)C[C@]3(O)C(=O)C(C)=C[C@@H]23)[C@@H]2C(C)(C)[C@]12OC(C)=O [PMA, Phorbol-12-Myristate-13-Acetate]","PKCα distribution, membrane, based on kinase activity",PKCα; baseline 21±2% membrane,84±3%
same,"PKCα distribution, cytosol, based on kinase activity",PKCα; baseline 79±7% cytosol,16±4%
"CK: cell-free expressed human casein kinase II, contact photo-transferred to microarray",phosphorylation by ZAP-70,[1],does not phosphorylate
same,phosphorylation by Src pp^60,[2],significant phosphorylation
p53 “probe”: cell-free expressed human p53 labeled only with BODIPY-FL using BODIPY-FL-tRNA COMPLETE,binding of cell-free expressed p53 probe to MDM bait,MDM2 bait,selective binding

# Source: patent publication US20100075374A1, “Methods for capturing nascent proteins” (AMBERGEN, INC., priority 2007, published 2010)
